According to PMC4914081:
Substitutions are numbered along the chain they refer to.

What was measured:
Mmp150C = target: T1, Mmp150C (mouse, UniProt Q9QWF0 706-827); test: EMSA
T1 sequence: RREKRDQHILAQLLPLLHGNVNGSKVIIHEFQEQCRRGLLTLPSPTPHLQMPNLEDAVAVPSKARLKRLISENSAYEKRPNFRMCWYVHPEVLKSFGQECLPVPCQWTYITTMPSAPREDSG

Hsp150C = Hsp150C (human, UniProt Q13111 727-854); test: EMSA
Cac1C (C-terminal WHD) [1] = target: T2, Cac1C (C-terminal WHD) (budding yeast, UniProt Q12495 520-606); test: EMSA
Cac1C K577E = Cac1C K577E (budding yeast, UniProt Q12495 520-606, K577E); test: EMSA
Cac1C K583E = Cac1C K583E (budding yeast, UniProt Q12495 520-606, K583E); test: EMSA
Cac1C K553E = Cac1C K553E (budding yeast, UniProt Q12495 520-606, K553E); test: EMSA
Mmp150C 4KE = target: T3, Mmp150C 4KE (mouse, UniProt Q9QWF0 706-827, K768E;R770E;K772E;R773E); test: EMSA
T3 sequence: T1 sequence with K63E, R65E, K67E, R68E

GST-Cac2 = GST-Cac2 (budding yeast, UniProt Q04199 1-438); test: pull-down
Cac1C (C-terminal WHD) [2] = target: T2, Cac1C (C-terminal WHD); test: pull-down
[3] = target: Cac1 (in CAF-1);GST-Cac2;Cac3 (budding yeast (Saccharomyces …, UniProt Q12495;Q04199;P13712 91-606;1-438;1-422, ||)); test: pull-down
Cac1C (C-terminal WHD) [4] = target: T2, Cac1C (C-terminal WHD); test: EMSA; remark: listed apart in the source
Cac1C (C-terminal WHD) [5] = target: T2, Cac1C (C-terminal WHD); test: EMSA; remark: listed apart in the source
Cac1C (C-terminal WHD) [6] = target: T2, Cac1C (C-terminal WHD); test: EMSA; remark: listed apart in the source

T2 sequence (Q12495 520-606): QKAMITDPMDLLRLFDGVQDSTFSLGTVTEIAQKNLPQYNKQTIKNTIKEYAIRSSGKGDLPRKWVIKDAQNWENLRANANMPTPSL
Chain of Cac1C K583E (Q12495 520-606 K583E): as the sequence (Q12495 520-606) above, with K64E counted along it
Chain of Cac1C K577E (Q12495 520-606 K577E): as the sequence (Q12495 520-606) above, with K58E counted along it
Chain of Hsp150C (Q13111 727-854): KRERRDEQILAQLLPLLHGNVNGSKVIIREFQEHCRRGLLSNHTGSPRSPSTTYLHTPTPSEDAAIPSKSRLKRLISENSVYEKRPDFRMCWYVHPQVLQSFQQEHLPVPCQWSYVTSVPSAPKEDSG
Chain of Cac1C K553E (Q12495 520-606 K553E): as the sequence (Q12495 520-606) above, with K34E counted along it
Chain of GST-Cac2 (Q04199 1-438): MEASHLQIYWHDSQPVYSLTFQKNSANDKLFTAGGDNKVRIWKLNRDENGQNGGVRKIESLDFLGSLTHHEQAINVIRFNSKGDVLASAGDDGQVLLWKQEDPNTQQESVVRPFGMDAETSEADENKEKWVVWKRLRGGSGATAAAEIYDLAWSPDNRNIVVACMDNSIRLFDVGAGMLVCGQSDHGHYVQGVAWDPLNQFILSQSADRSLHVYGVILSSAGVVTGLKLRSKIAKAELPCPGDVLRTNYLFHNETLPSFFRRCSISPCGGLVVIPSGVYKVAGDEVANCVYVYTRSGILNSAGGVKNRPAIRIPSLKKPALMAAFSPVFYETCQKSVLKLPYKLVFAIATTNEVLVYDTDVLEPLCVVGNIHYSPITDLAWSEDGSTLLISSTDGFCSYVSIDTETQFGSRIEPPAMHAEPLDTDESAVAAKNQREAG
Chain of Cac1 (in CAF-1);GST-Cac2;Cac3 (budding yeast (Q12495 91-606, chain 1 of 3): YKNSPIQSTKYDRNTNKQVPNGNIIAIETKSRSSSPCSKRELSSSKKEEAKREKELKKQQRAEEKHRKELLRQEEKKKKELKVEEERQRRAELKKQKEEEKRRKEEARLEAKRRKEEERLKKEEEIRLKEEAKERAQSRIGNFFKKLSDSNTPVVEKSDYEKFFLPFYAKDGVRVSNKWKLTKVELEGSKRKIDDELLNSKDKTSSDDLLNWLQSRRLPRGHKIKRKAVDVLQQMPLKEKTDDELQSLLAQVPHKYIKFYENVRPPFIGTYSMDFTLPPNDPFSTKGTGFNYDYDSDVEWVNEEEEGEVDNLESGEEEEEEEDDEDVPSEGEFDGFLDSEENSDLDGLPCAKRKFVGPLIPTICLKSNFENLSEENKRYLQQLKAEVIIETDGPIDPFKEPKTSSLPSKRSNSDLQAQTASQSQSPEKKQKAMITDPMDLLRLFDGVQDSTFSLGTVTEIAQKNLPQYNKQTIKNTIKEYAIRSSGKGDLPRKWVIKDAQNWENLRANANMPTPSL
Chain of Cac1 (in CAF-1);GST-Cac2;Cac3 (budding yeast (Q04199 1-438, chain 2 of 3): as the sequence (Q04199 1-438) above
Chain of Cac1 (in CAF-1);GST-Cac2;Cac3 (budding yeast (P13712 whole entry, chain 3 of 3): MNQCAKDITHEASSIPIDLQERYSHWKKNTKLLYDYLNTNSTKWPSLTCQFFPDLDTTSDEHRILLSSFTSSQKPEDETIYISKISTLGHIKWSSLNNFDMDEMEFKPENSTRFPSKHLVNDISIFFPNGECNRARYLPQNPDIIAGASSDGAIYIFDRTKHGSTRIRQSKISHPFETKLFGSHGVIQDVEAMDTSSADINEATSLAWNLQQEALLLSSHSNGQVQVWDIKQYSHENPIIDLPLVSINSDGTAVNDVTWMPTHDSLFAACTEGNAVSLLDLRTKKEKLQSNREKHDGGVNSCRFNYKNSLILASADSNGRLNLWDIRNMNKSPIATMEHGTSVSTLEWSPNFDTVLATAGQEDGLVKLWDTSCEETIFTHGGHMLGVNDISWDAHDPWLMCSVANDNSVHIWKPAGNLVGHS

B1: 58 bp (dsDNA)
DNA 1: ATACATTTTATGACTGGAAACTTTTTTGTACAACACTCCAATAAACATTTTGATTTTA
DNA 2: TAAAATCAAAATGTTTATTGGAGTGTTGTACAAAAAAGTTTCCAGTCATAAAATGTAT
binding result (Mmp150C): binds | binding result (Hsp150C): binds | binding result (Cac1C (C-terminal WHD) [1]): binds | binding result (Cac1C K577E): binds | binding result (Cac1C K583E): binds | binding result (Cac1C K553E): binds | binding result (Mmp150C 4KE): no binding

B2: 58 bp biotinylated (dsDNA)
DNA 1: B1 DNA 1
DNA 2: B1 DNA 2
modifications: biotin on one strand
binding result (GST-Cac2): no binding | binding result (Cac1C (C-terminal WHD) [2]): binds | binding result [3]: binds

B3: AT-rich (dsDNA)
DNA 1: ATAATCGATATT
DNA 2: AATATCGATTAT
binding result (Cac1C (C-terminal WHD) [4]): binds

CAACAAAACCCCAACCCCAAACCACACC (ssDNA) [ssDNA]
binding result (Cac1C (C-terminal WHD) [5]): binds

B4: GC-rich (dsDNA)
DNA 1: ATCGCCCGCGCA
DNA 2: TGCGCGGGCGAT
binding result (Cac1C (C-terminal WHD) [6]): binds
